Laboratory results published in patent US20170174700A1.

Experiments:
streptavidin [1] = molecular target: streptavidin (UniProt P22629); test: release from M280 Streptavidin Dynabeads by 5 mM biotin or bis-biotin, fluorescence of supernatant
streptavidin [2] = molecular target: streptavidin (UniProt P22629); test: release from streptavidin beads by biotin
streptavidin [3] = molecular target: streptavidin (UniProt P22629); test: BLI (Octet), streptavidin biosensor tips, conjugate in solution, 25 C

Chain of streptavidin (P22629 37-163 limits assumed): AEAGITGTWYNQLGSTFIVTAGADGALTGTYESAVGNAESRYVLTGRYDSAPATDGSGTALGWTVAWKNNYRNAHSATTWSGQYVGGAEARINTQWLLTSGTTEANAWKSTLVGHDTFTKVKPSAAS

Row | Detachment (streptavidin [1]) [%] | Detach. (streptavidin [2]) [%] | Kd (streptavidin [3]) [pM] | koff (streptavidin [3]) [s⁻¹] | kon (streptavidin [3]) [M⁻¹ s⁻¹] | Substance
1 | 85 |  |  |  |  | 18-Ab (goat anti-mouse IgG linked to biotin derivative 18) (antibody)
2 |  | 0 | 0.00595 | 1.43e-07 | 2.41e+07 | Biotin-Ab (antibody)
3 | 16 |  |  |  |  | DSB-X-Ab (goat anti-mouse IgG linked to DSB-X) (antibody)
